Experimental data from US20020155503.

With “recombinant form of the human Syk enzyme” the “phosphorylation of library peptide, anti-phosphotyrosine ELISA (absorbance at 450 nm); preferred substrate of the sub-set” value (“phosphorylation of library peptide” below) (Asp-Glu-Glu-Asp-Tyr) was “Library Sub-Set 1 Asp-Glu-Glu-Asp-Tyr [SEQ ID No. 11]”, the “phosphorylation of library peptide” value (Asp-Glu-Glu-Tyr-Asp) was “Library Sub-Set 2 Asp-Glu-Glu-Tyr-Asp [SEQ ID No. 12]” and the “phosphorylation of library peptide” value (Asp-Glu-Tyr-Glu-Asp) was “Library Sub-Set 3Asp-Glu-Tyr-Glu-Asp [SEQ ID No. 13]”. For the same substance, the “phosphorylation of library peptide” value (Asp-Tyr-Glu-Glu-Val) was “Library Sub-Set 4 Asp-Tyr-Glu-Glu-Val [SEQ ID No. 14]” and the “phosphorylation of library peptide” value (Tyr-Ser-Ile-Ile-Nle) was “Library Sub-Set 5 Tyr-Ser-Ile-Ile-Nle [SEQ ID No. 15]”.
